Laboratory results published in the supplement of paper PMC10724198.
± gives the standard deviation of the averaged measurements.
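Also: PSI is a weighted mean of sequencing reads over stability bins, variants kept only with over 10 reads, mCherry proximal and sfGFP distal, peptide attached via GGGS linker.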

These sequences were tested on Saccharomyces cerevisiae (assay: protein stability index of tFT-peptide fusion (C-terminal peptide) (PSI (0-1 scale)); higher = more stable (slower turnover)). Conditions: genetic background: wild type; temperature: 30 C.
Experimental: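 Multiplexed protein stability (MPS) profiling in S. cerevisiae. Random 12-aa peptides (tFT-X12 library) are fused to the C-terminus of a sfGFP-mCherry tandem fluorescent timer, after mCherry and a GGGS linker. Cells are FACS-sorted into 8 mCherry/sfGFP bins and deep-sequenced. The protein stability index (PSI) is the read-weighted bin average, scaled from 0 (unstable) to 1 (stable). Only peptides with >10 reads are reported; cells were grown at 30 °C in SC-His with glucose.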
PLTVPLPLALSP gave a protein stability index of 0.684 ± 0.047.
Sequence ALWQADTRSVNN has a protein stability index of 0.64 ± 0.097.
Sequence PILPPLVPSSRL has a protein stability index of 0.769 ± 0.07.
In the case of PSARASSRTAPS, the protein stability index is reported as 0.661 ± 0.015.
For PPPPRPLPTSRP, the protein stability index was 0.689 ± 0.012.
In the case of GSVEGVLWSGVL, the protein stability index is reported as 0.711 ± 0.031.
GKMLCADRSLEY was tested, and the protein stability index was 0.701 ± 0.11.
GEGRGDGEEGTG was tested, and the protein stability index was 0.679 ± 0.035.
Work on SRLMGLGLLCVG yielded a protein stability index of 0.5272 ± 0.0013.
In the case of PRRFPCRLRLGF, the protein stability index is reported as 0.702 ± 0.074.
In the case of GDPVKCSNSKDK, the protein stability index is reported as 0.685 ± 0.012.
For PRPSPFIGLPFP, the protein stability index was 0.749 ± 0.067.
In the case of GYGWGVGWGFGR, the protein stability index is reported as 0.673 ± 0.028.
GFTQLQNERVDG gave a protein stability index of 0.785 ± 0.1.
RRVMGRLKNQIK was tested, and the protein stability index was 0.6672 ± 0.0065.
With TCAGTGSTHLSR the protein stability index was 0.688 ± 0.035.
In the case of SSGVIIGRIAVK, the protein stability index is reported as 0.603 ± 0.033.
Sequence GGGGVGTGCQRR has a protein stability index of 0.668 ± 0.037.
For ISTSPRCCPRLL, the protein stability index was 0.714 ± 0.023.
YVARERWEGCRI gave a protein stability index of 0.7 ± 0.0077.
LIGTAPGITGFN gave a protein stability index of 0.661 ± 0.011.
For LTYVQPTKGTLG, the protein stability index was 0.654 ± 0.05.
Sequence KRGRISKKRDSS has a protein stability index of 0.759 ± 0.017.
With CVPYLGEFTRNG the protein stability index was 0.691 ± 0.038.
For SGEKKPTKGTRT, the protein stability index was 0.57 ± 0.055.
PVFPSFGVSEFV was tested, and the protein stability index was 0.753 ± 0.059.
LGGGGLRSRGAG showed a protein stability index of 0.785 ± 0.21.
PLSPPPPTLPLP showed a protein stability index of 0.714 ± 0.036.
With ASCRRGGAGCLR the protein stability index was 0.735 ± 0.043.
AWRVVRIFFCGG gave a protein stability index of 0.72 ± 0.15.
APPPMPLPLIPL was tested, and the protein stability index was 0.633 ± 0.04.
PTSPLVFFFVPL was tested, and the protein stability index was 0.624 ± 0.037.
Sequence PLPPLPPPTAPP has a protein stability index of 0.693 ± 0.029.
Sequence FFAFLLRSPSTS has a protein stability index of 0.711 ± 0.064.
With VTHSASFSDVFR the protein stability index was 0.731 ± 0.034.
HPDAGTAARDTD was tested, and the protein stability index was 0.648 ± 0.092.
SGAGVGGQVAVG was tested, and the protein stability index was 0.717 ± 0.061.
LLLPPPVFPPSL gave a protein stability index of 0.683 ± 0.01.
In the case of PPHPPPPFPPPP, the protein stability index is reported as 0.744 ± 0.015.
CRSLSAPLPGSF was tested, and the protein stability index was 0.657 ± 0.021.
Work on GPTFPPGLPSSL yielded a protein stability index of 0.695 ± 0.09.
With TSKPGLQIPRRE the protein stability index was 0.747 ± 0.047.
FKCWAGVRCGMV was tested, and the protein stability index was 0.611 ± 0.013.
IIGVKNEGRGRE was tested, and the protein stability index was 0.724 ± 0.089.
PPLPSMVLQRIY gave a protein stability index of 0.589 ± 0.0065.
Work on KKKTKNGKEKRR yielded a protein stability index of 0.7 ± 0.019.
Work on GVLEEVGPGLFL yielded a protein stability index of 0.78 ± 0.14.
In the case of GDERGAGRVGGS, the protein stability index is reported as 0.626 ± 0.0064.
VCRGRGGEGIGW showed a protein stability index of 0.721 ± 0.096.
Sequence RKETQKIRKKRI has a protein stability index of 0.679 ± 0.03.
In the case of GGGSGGREPGGS, the protein stability index is reported as 0.726 ± 0.027.
With LACLPPLLLFSL the protein stability index was 0.539 ± 0.00097.
In the case of HVLSQSLSALPC, the protein stability index is reported as 0.681 ± 0.044.
ALPPPLPPPAGP showed a protein stability index of 0.699 ± 0.077.
WVAFTRGGCGHC showed a protein stability index of 0.66 ± 0.017.
In the case of NTGNGYDEKTME, the protein stability index is reported as 0.7622 ± 0.0014.
Work on EPGLIPVAGTFF yielded a protein stability index of 0.76 ± 0.011.
With SIKKFRTRKRRR the protein stability index was 0.67 ± 0.12.
PRPCLPPDPPPS gave a protein stability index of 0.654 ± 0.0071.
HPGPAPPPPRGP was tested, and the protein stability index was 0.66 ± 0.019.
Sequence WLRTGNVLQELL has a protein stability index of 0.699 ± 0.03.
With FGRFVLSCFDRK the protein stability index was 0.661 ± 0.019.
RVVPSVSVWLPP showed a protein stability index of 0.663 ± 0.052.
In the case of RRASTVRVPTCW, the protein stability index is reported as 0.701 ± 0.019.
PPSATPPHPPPS was tested, and the protein stability index was 0.666 ± 0.052.
Sequence IKGKYYEAKNKI has a protein stability index of 0.714 ± 0.054.
Sequence VFYVGGGSVVRG has a protein stability index of 0.663 ± 0.011.
Work on WGEGCGSSEEGE yielded a protein stability index of 0.695 ± 0.087.
Work on GVPFPGPNTLIL yielded a protein stability index of 0.73 ± 0.075.
In the case of VSLGNVGYFGSE, the protein stability index is reported as 0.734 ± 0.039.
With PPPPPLPPPPTP the protein stability index was 0.652 ± 0.058.
Sequence CPLPPSTPPLRL has a protein stability index of 0.709 ± 0.0098.
With KGKRGKKKEESN the protein stability index was 0.6515 ± 0.0039.
VGCQAIESRLHL gave a protein stability index of 0.737 ± 0.077.
RKTPAITSNIQI gave a protein stability index of 0.722 ± 0.027.
Sequence RALITRAPSKER has a protein stability index of 0.795 ± 0.084.
For TNALVGEWVGLG, the protein stability index was 0.795 ± 0.11.
TLFVAWTDCMSY gave a protein stability index of 0.6591 ± 0.0061.
FFMPRCCSLALE gave a protein stability index of 0.644 ± 0.047.
With DAGVDVGVGTHD the protein stability index was 0.605 ± 0.041.
For WLFDRLPFNAEN, the protein stability index was 0.715 ± 0.046.
